Measurements taken from patent publication US20220185900A1 (Regeneron, published 2022).

T1: Macaca fascicularis (mf) RET.mmh (Macaca fascicularis)
T1 construct: also called monkey RET
T1 chain: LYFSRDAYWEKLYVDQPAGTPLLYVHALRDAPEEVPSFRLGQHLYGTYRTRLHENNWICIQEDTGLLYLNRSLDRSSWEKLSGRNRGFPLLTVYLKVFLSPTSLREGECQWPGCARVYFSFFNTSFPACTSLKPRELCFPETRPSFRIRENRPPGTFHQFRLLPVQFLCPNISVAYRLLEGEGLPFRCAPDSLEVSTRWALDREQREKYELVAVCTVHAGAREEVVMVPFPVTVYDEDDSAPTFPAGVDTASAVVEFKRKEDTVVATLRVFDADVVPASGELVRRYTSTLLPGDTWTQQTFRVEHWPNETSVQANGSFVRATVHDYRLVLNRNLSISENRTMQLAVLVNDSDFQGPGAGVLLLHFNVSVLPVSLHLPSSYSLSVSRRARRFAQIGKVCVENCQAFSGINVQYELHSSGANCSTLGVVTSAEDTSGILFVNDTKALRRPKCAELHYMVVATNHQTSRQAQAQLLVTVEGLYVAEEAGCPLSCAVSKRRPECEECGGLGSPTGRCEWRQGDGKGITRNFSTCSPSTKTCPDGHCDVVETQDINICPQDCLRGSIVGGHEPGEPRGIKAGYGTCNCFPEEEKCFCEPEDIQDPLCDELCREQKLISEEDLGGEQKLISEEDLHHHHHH

B1: H4H8062P (antibody, human IgG4, V domains shown)
VH: EVQLVESGGGLVQPGGSLRLSCSVSGFIFKNYAMRWVRQAPGKGLEWVSGISGSGGITYYADSVRGRVTISRDNSKNTLDLQMTNLRAEDTAVYYCAKAEYSSSGAYFDYWGQGTLVTVSS
VL: DIQMTQSPSSLSASVGDRVTITCRASQSIHNYLNWYLQRPGKAPKLLVYAASSLQSGVPSRFSGRGSGTDFTLTISSLQPEDFATYYCQQSYSAPYSFGQGTKLEIK
notes: human IgG4 Fc (H4H prefix)
B2: H4H8076P (antibody, human IgG4, V domains shown)
VH: QVQLQQSGPGLVKPSQTLSLTCAISGDSVSSNSVAWNWIRQSPSRGLEWLGRTYYRSNWYNTYAVSVKSRITIDPDTSKNQFSLQLNSVTPEDTALYYCARGHRYSGSYFDYWGQGTLVTVSS
VL: DIQMTQSPSSLSASVGDRVTITCRASQNINSYFNWYQQKPGKAPKLLIYAASSLQSGVPSRFSGGGSGTDFTLTISSLQPEDFATYYCQQTYTIPWTFGQGTKVEIK
notes: human IgG4 Fc (H4H prefix)
B3: H4H8071P (antibody, human IgG4, V domains shown)
VH: EVQLVESGGGLVQPGGSLRLSCAASGFTFTTYFMSWVRQAPGKGLEWVSGISGSGTSTFYVDSMKGRFTISRDNSKNTLYLQMNSLRVEDTAVYFCAKENTYGHFDFWGQGTLVTVSS
VL: DIQLTQSPSFLSASVGDRVTITCWASQDISSHLAWYQQKPGKAPKVLIYDASTLQSGVPSRISGSGSGTEFTLTISSLQPEDFAAYYCQQLDGYPYTFGQGTKLEIK
notes: human IgG4 Fc (H4H prefix)
B4: H4H8060P (antibody, human IgG4, V domains shown)
VH: QVTLKESGPVLVKPTETLTLTCTVSGFSLSSARMGVSWIRQPPGKALEWLAHIFSTDEKSYSTSLKSRLSISKDTSLSQVVLIMTNMDPVDTATYYCARRTTMAPYYYYYGMDVWGHGTTVTVSS
VL: AIQMTQSPASLSASVGDRVTITCRASQGIRNDLGWYQQKPGKAPKLLISAASSLQSGVPSRFSGSGSGTDFTLTISSLQPEDFATYYCLQDYKYPWTFGQGTKVEIK
notes: human IgG4 Fc (H4H prefix)
B5: H4H8079P (antibody, human IgG4, V domains shown)
VH: EVQLVESGGGLVKPGGSLRLSCAASGFTFSNAWMSWVRQAPGKGLEWVGRIKSKTDGGTSEYAAPVKGRFTISRDDSKNTLFLQMNSLKSEDAAVYYCTTGRSWSDYFDFWGQGTLVTVSS
VL: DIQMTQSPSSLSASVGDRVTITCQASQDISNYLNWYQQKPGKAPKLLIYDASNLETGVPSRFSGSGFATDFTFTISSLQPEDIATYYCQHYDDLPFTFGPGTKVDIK
notes: human IgG4 Fc (H4H prefix)

target: T2, hRET.mFc (human); experiment: SPR Biacore T200, mAb capture, 37 C
T2 construct: also called dimeric human RET
Procedure: (§1) Binding affinities and kinetic constants of human anti-RET antibodies were determined by surface plasmon resonance (Biacore T200) at […] (Tables 2-3). […] Binding equilibrium dissociation constants (KD) and dissociative half-lives (t_{1/2}) were calculated from the kinetic rate constants as: KD [M]=kd/kₐ; and t_{1/2}(min)=(ln2/(60*kd). Calculations were performed using BiacoreT200 evaluation software v1.0.

Binder | Kd | koff | kon | t½
B1 | 2.4 nM | 0.00088 s⁻¹ | 366000 M⁻¹ s⁻¹ | 13 min
B2 | 2.15 nM | 0.000675 s⁻¹ | 314000 M⁻¹ s⁻¹ | 17 min
B3 | 1.04 nM | 0.000312 s⁻¹ | 300000 M⁻¹ s⁻¹ | 37 min
B4 | 0.558 nM | 0.000592 s⁻¹ | 1.06e+06 M⁻¹ s⁻¹ | 19 min
B5 | 2 nM | 0.000523 s⁻¹ | 261000 M⁻¹ s⁻¹ | 22 min

Target: T1, Macaca fascicularis (mf) RET.mmh
Experiment: SPR Biacore T200, mAb capture, 37 C
Procedure: as §1

Binder | Kd | koff | kon | t½
B1 | 6.31 nM | 0.00428 s⁻¹ | 678000 M⁻¹ s⁻¹ | 3 min
B2 | 4.84 nM | 0.0014 s⁻¹ | 289000 M⁻¹ s⁻¹ | 8 min
B3 | 7.04 nM | 0.00114 s⁻¹ | 161000 M⁻¹ s⁻¹ | 10 min
B4 | 1.88 nM | 0.00209 s⁻¹ | 1.12e+06 M⁻¹ s⁻¹ | 6 min
B5 | 13.3 nM | 0.00205 s⁻¹ | 154000 M⁻¹ s⁻¹ | 6 min

target: T3, hRET.mmh (human, UniProt P07949 29-635, biotinylated in the ELISA of Example 4 (biot-hRET.mmh); not in the SPR of Example 3); experiment: SPR Biacore T200, mAb capture, 37 C
T3 construct: also called biot-hRET.mmh; soluble monomeric human RET
Procedure: as §1

Binder | Kd | koff | kon | t½
B1 | 2.65 nM | 0.00181 s⁻¹ | 682000 M⁻¹ s⁻¹ | 6 min
B2 | 4.31 nM | 0.00136 s⁻¹ | 315000 M⁻¹ s⁻¹ | 9 min
B3 | 3.79 nM | 0.000896 s⁻¹ | 236000 M⁻¹ s⁻¹ | 13 min
B4 | 1.41 nM | 0.00157 s⁻¹ | 1.11e+06 M⁻¹ s⁻¹ | 7 min
B5 | 9.1 nM | 0.00189 s⁻¹ | 207000 M⁻¹ s⁻¹ | 6 min

target: T2, hRET.mFc; experiment: SPR Biacore T200, mAb capture, 25 C
Procedure: as §1

Binder | Kd | koff | kon | t½
B1 | 0.49 nM | 0.00022 s⁻¹ | 400000 M⁻¹ s⁻¹ | 53 min
B2 | 0.686 nM | 0.000171 s⁻¹ | 250000 M⁻¹ s⁻¹ | 68 min
B3 | 0.89 nM | 0.000179 s⁻¹ | 200000 M⁻¹ s⁻¹ | 65 min
B4 | 0.179 nM | 0.000149 s⁻¹ | 827000 M⁻¹ s⁻¹ | 78 min
B5 | 0.72 nM | 0.000151 s⁻¹ | 209000 M⁻¹ s⁻¹ | 77 min

Target: T1, Macaca fascicularis (mf) RET.mmh
Experiment: SPR Biacore T200, mAb capture, 25 C
Procedure: as §1

Binder | Kd | koff | kon | t½
B1 | 1.46 nM | 0.000733 s⁻¹ | 501000 M⁻¹ s⁻¹ | 16 min
B2 | 1.54 nM | 0.000327 s⁻¹ | 212000 M⁻¹ s⁻¹ | 35 min
B3 | 2.32 nM | 0.000272 s⁻¹ | 117000 M⁻¹ s⁻¹ | 43 min
B4 | 0.523 nM | 0.000393 s⁻¹ | 751000 M⁻¹ s⁻¹ | 29 min
B5 | 3.73 nM | 0.000435 s⁻¹ | 117000 M⁻¹ s⁻¹ | 27 min

target: T3, hRET.mmh; experiment: SPR Biacore T200, mAb capture, 25 C
Procedure: as §1

Binder | Kd | koff | kon | t½
B1 | 0.733 nM | 0.00037 s⁻¹ | 505000 M⁻¹ s⁻¹ | 31 min
B2 | 1.51 nM | 0.000338 s⁻¹ | 224000 M⁻¹ s⁻¹ | 34 min
B3 | 1.41 nM | 0.000219 s⁻¹ | 156000 M⁻¹ s⁻¹ | 53 min
B4 | 0.409 nM | 0.000311 s⁻¹ | 761000 M⁻¹ s⁻¹ | 37 min
B5 | 2.68 nM | 0.000384 s⁻¹ | 143000 M⁻¹ s⁻¹ | 30 min

target: T3, hRET.mmh; experiment: competition sandwich ELISA: 1 nM biot-hRET.mmh + antibody, plate-coated GDNF/GFRα1 co-complex
Procedure: The ability of anti-RET antibodies to block the binding of human RET to pre-complexed plate bound GDNF:GFRα1 was assessed using a competition sandwich ELISA.
Antibody-RET mixtures were incubated for 1 hour at RT and then transferred to microtiter plates previously coated with the hGDNF/hGFRα1 co-complex. Binding was allowed to proceed for 1 hr at RT followed by extensive washing. […] Plates were read at 450 nm and data analysis used a sigmoidal dose-response model within Prism™ software.
The absorbance values of the wells containing the highest concentration for each antibody were used to determine the blocking percent at maximum concentration antibody tested.

Binder | % Max Blocking | IC50
B1 | 97% | < 0.25 nM
B2 | 95% | < 0.25 nM
B3 | 72% | 0.36 nM
B4 | 95% | < 0.25 nM
B5 | 93% | < 0.25 nM
